Consider 1 substance from patent US20100099079.

In this data set the test system is 5-FAM/QXL 520 NS3 FRET substrate.

As to Recombinant HCV NS3/4A protease, the “NS3 FRET activity (5-FAM dequenching)” value was “FRET signal increased with increasing amounts of purified NS3, revealing a linear correlation (R^2=0.999) between NS3 protein levels and FRET activity”.
